Measured values taken from US20040230039A1 (YEDA RESEARCH AND DEVELOPMENT, published 2004).

B1: MACHβ1 (ORF-B of MACH) (other, human, UniProt Q14790-5 1-235, looked up)
chain: MDFSRNLYDIGEQLDSEDLASLKFLSLDYIPQRKQEPIKDALMLFQRLQEKRMLEESNLSFLKELLFRINRLDLLITYLNTRKEEMERELQTPGRAQISAYRVMLYQISEEVSRSELRSFKFLLQEEISKCKLDDDMNLLDIFIEMEKRVILGEGKLDILKRVCAQINKSLLKIINDYEEFSKERSSSLEGSPDEFSNDFGQSLPNEKQTSGILSDHQQSQFCKSTGESAQTSQH
notes: Gal4 hybrid in yeast; also expressed in mammalian cells (34 kDa); also called MACH B; MACH ORF-B
B2: human p55-IC (intracellular domain of human p55 TNF receptor, residues 206-426) (receptor, UniProt P19438 235-455, looked up)
chain: RYQRWKSKLYSIVCGKSTPEKEGELEGTTTKPLAPNPSFSPTPGFTPTLGFSPVPSSTFTSSSTYTPGDCPNFAAPRREVAPPYQGADPILATALASDPIPNPLQKWEDSAHKPQSLDTDDPATLYAVVENVPPLRWKEFVRRLGLSDHEIDRLELQNGRCLREAQYSMLATWRRRTPRREATLELLGRVLRDMDLLGCLEDIEEALCGPAALPPAPSLLR
notes: range 206-426; Gal4 hybrid in yeast; Numbering as printed; may count on the mature receptor; also called 206-426 p55; intracellular domain of human p55-R (CD120a)
B3: MACHα1 (C360S) (enzyme)
chain: MDFSRNLYDIGEQLDSEDLASLKFLSLDYIPQRKQEPIKDALMLFQRLQEKRMLEESNLSFLKELLFRINRLDLLITYLNTRKEEMERELQTPGRAQISAYRVMLYQISEEVSRSELRSFKFLLQEEISKCKLDDDMNLLDIFIEMEKRVILGEGKLDILKRVCAQINKSLLKIINDYEEFSKERSSSLEGSPDEFSNGEELCGVMTISDSPREQDSESQTLDKVYQMKSKPRGYCLIINNHNFAKAREKVPKLHSIRDRNGTHLDAGALTTTFEELHFEIKPHDDCTVEQIYEILKIYQLMDHSNMDCFICCILSHGDKGIIYGTDGQEAPIYELTSQFTGLKCPSLAGKPKVFFIQASQGDNYQKGIPVETDSEEQPYLEMDLSSPQTRYIPDEADFLLGMATVNNCVSYRNPAEGTWYIQSLCQSLRERCPRGDDILTILTEVNYEVSNKDDKKNMGKQMPQPTFTLRKKLVFPSD
notes: Gal4 hybrid in yeast; also called MACHα(C360S)
B5: MORT-1 (FADD), human, full-length (other, UniProt Q13158 1-208, looked up)
chain: MDPFLVLLHSVSSSLSSSELTELKFLCLGRVGKRKLERVQSGLDLFSMLLEQNDLEPGHTELLRELLASLRRHDLLRRVDDFEAGAAAGAAPGEEDLCAAFNVICDNVGKDWRRLARQLKVSDTKIDSIEDRYPRNLTERVRESLRIWKNTEKENATVAHLVGALRSCQMNLVADLVQEVQQARDLQNRSGAMSPMSWNSDASTSEAS
notes: Gal4 hybrid in yeast; also expressed in mammalian cells; also called HF1

Columns and labels:
[1] = system: T1, Acetyl-Asp-Glu-Val-Asp-a-(4-Methyl-Coumaryl-7-Amide)
T1 sequence: DEVD

[2] = system: T2, Acetyl-Tyr-Val-Ala-Asp-AMC
T2 sequence: YVAD

MACHα1 (C360S) [3] = molecular target: B3; assay: yeast two-hybrid test
Text: (§1) Except where otherwise indicated, all experimental procedures for the findings presented are as described above (see also Boldin et al., 1995).

MACHα1 [4] = molecular target: T3, MACHα1 (human, UniProt Q14790 1-479); assay: yeast two-hybrid test
T3 construct: also called CASP-8α1
Text: as §1

[5] = molecular target: the molecule itself; assay: yeast two-hybrid beta-galactosidase filter assay; activation-domain hybrid against DNA-binding-domain hybrid (row); + = strong color within 90 min
MACHα1 (C360S) [6] = molecular target: B3; assay: yeast two-hybrid beta-galactosidase filter assay
Protocol: (§2) Their interaction was assessed by a β-galactosidase expression filter assay as described in Boldin et al., (1995b). The results are presented in terms of the time required for the development of strong color. […] Except where otherwise indicated, all experimental procedures for the findings presented are as described above (see also Boldin et al., 1995).

MACHα1 [7] = molecular target: T3, MACHα1; assay: yeast two-hybrid beta-galactosidase filter assay
Protocol: as §2

MACHβ1 (ORF-B of MACH) = molecular target: B1; assay: yeast two-hybrid beta-galactosidase filter assay
Protocol: as §2

yeast two-hybrid test = molecular target: the molecule itself; assay: yeast two-hybrid test
Text: as §1

FLAG-MORT-1 = molecular target: T4, FLAG-MORT-1 (UniProt Q13158 1-208); assay: in vitro binding of 35S-labeled FLAG-MORT-1 from HeLa extracts to GST fusion on glutathione beads, SDS-PAGE and autoradiography
T4 construct: Expressed and 35S-labeled in HeLa cells; yielded proteins of about 27, 28, 32 and 34 kD; also called MORT-1-FLAG fusion protein; not shown: FLAG octapeptide (Eastman Kodak), N-terminal
T4 sequence (looked up): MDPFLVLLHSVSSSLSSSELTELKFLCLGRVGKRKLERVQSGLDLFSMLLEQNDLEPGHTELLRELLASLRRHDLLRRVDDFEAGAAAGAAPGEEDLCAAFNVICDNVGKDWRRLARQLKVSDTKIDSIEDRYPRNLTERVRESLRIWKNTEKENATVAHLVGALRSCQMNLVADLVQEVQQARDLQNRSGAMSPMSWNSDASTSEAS
Protocol: Glutathione S-transferase (GST) fusions with the wild type or a mutated Fas-IC were produced and adsorbed to glutathione-agarose beads; see Boldin et al., 1995; Current Protocols in Molecular Biology, 1994; Frangioni and Neel, 1993). […] The extracts were prepared in a buffer containing 50 mM Tris-HCl, pH 7.5, 150 mM NaCl, 0.1% NP-40, 1 mM dithiotreitol, 1 mM EDTA, 1 mM phenylmethylsulfonyl fluoride, 20 μg/ml Aprotonin, 20 μg/ml Leupeptin, 10 mM sodium fluoride and 0.1 mM sodium vanadate (1 ml per 5×10⁵ cells).

[8] = molecular target: T5, MORT-1 (FADD), human, full-length (human), Q13158; assay: yeast two-hybrid beta-galactosidase filter assay; activation-domain hybrid against DNA-binding-domain hybrid (row); +++ = strong color within 30 min; conditions: remark: other sources report otherwise
T5 chain: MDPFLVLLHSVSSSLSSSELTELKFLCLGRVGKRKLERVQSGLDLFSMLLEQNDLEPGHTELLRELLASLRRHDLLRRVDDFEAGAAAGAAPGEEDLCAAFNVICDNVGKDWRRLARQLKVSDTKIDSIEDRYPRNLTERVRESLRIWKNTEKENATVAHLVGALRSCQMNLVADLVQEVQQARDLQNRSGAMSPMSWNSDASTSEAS

TRADD = molecular target: T6, TRADD (human, UniProt Q15628 1-312, limits assumed); assay: yeast two-hybrid screen of a human B cell library with MORT-1 as bait
T6 construct: Gal4 hybrid in yeast
T6 sequence (looked up): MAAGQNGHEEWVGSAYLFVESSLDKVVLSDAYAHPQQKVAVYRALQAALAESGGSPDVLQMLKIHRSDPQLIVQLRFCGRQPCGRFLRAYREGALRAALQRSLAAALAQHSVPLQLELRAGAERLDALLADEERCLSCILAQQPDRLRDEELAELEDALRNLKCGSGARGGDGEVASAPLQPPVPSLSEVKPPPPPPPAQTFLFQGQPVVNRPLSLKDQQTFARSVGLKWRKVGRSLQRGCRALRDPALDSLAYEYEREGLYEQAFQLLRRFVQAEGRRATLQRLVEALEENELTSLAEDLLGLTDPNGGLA

[9] = molecular target: B2; assay: yeast two-hybrid beta-galactosidase test
Protocol: (§3) The interaction of the proteins encoded by the Gal4 DNA binding domain and activation-domain constructs (pGBT9 and PGAD-GH) within transfected SFY526 yeasts was assessed by β-galactosidase expression filter assay. […] The intracellular domains of human p55 TNF receptor (p55-IC residues 206-426), human CD40 (CD40-IC, residues 216-277) and human p75 TNF receptor (p75-IC, residues 287-461) as well as lamin, cyclin D and “empty” Gal4 (pGBT9) vectors served as negative controls in the form of DNA-binding domain constructs. SNF-1 and SNF4 served as positive controls in the form of DNA-binding-domain (SNF1) and activation-domain (SNF4) constructs. “Empty” Gal4 vectors (pGAD-GH) also served as negative controls in the form of activation domain constructs. The symbols “++” and “+” used in the presentation of the results of the above analysis denote the development of strong color within 30 and 90 min of the assay, respectively; and “−” denotes no development of color within 24 h.

[10] = molecular target: B5; assay: yeast two-hybrid beta-galactosidase test
Protocol: as §3

GST fusion of the full-length MACHα1 was tested, and the “cleavage of fluorogenic peptide substrate (AMC release) by bacterial lysates” value (“cleavage” below) [1] was “did not cleave Ac-DEVD-AMC”.

For GST fusion of MACHα1 Ser217 till Asp374, the “cleavage” value [1] was “Nor did cleavage occur”.

With “GST-fused MACH CED3/ICE-homology region with Cys360 replaced by Ser” the “cleavage” value [1] was “No cleavage was observed”.

With “GST fusion of MACHα1 Asp374 through the C-terminus” the “cleavage” value [1] was “Nor did cleavage occur”.

With “GST fusion of the CED3/ICE homology region of MACHα1 (Ser217 through the C-terminus)” the “cleavage” value [2] was “They had no measurable proteolytic activity, though, against the IL-1β-precursor sequence-derived fluorogenic substrate” and the “cleavage” value [1] was “cleaved effectively the PARP sequence-derived fluorogenic substrate”.

B1: binds (MACHα1 (C360S) [3]); binds (MACHα1 [4]); binds [5].

B2: no binding (MACHα1 (C360S) [6]); no binding (MACHα1 [7]); no binding (MACHβ1 (ORF-B of MACH)).

B3: binds (yeast two-hybrid test).

B4: GST-huFas-IC (receptor, human, UniProt P25445 191-335, looked up)
chain: KRKEVQKTCRKHRKENQGSHESPTLNPETVAINLSDVDLSKYITTIAGVMTLSQVKGFVRKNGVNEAKIDEIKNDNVQDTAEQKVQLLRNWHQLHGKKEAYDTLIKDLKKANLCTLAEKIQTIILKDITSDSENSNFRNEIQSLV
notes: domain: intracellular domain; Produced in E. coli, attached to glutathione beads; also called GST fusion with the human Fas-IC; GST-Fas-IC; not shown: glutathione S-transferase (GST) fusion partner
B4: binds (FLAG-MORT-1).

B5 was tested, and the time to development of strong color (beta-galactosidase filter assay, yeast two-hybrid) [8] was under 30 min, the binding result (TRADD) was “binds” and the binding result [9] was “no binding”.

B6: MORT-1 fragment residues 130-245 (MORT-1 DD) (other, human, UniProt Q13158 82-197, looked up)
chain: FEAGAAAGAAPGEEDLCAAFNVICDNVGKDWRRLARQLKVSDTKIDSIEDRYPRNLTERVRESLRIWKNTEKENATVAHLVGALRSCQMNLVADLVQEVQQARDLQNRSGAMSPMS
notes: Gal4 hybrid in yeast; expressed in HeLa cells for the cytotoxicity test; also called MORT 'tail'
B6: no binding [10].

B7: mouse Fas-IC (receptor, UniProt P25446 187-327, looked up)
chain: RKYRKRKCWKRRQDDPESRTSSRETIPMNASNLSLSKYIPRIAEDMTIQEAKKFARENNIKEGKIDEIMHDSIQDTAEQKVQLLLCWYQSHGKSDAYQDLIKGLKKAECRRTLDKFQDMVQKDLGKSTPDTGNENEGQCLE
notes: domain: intracellular domain
B7: binds [10].

B8: mouse Fas-IC I225N (receptor, UniProt P25446 187-327, looked up)
chain: RKYRKRKCWKRRQDDPESRTSSRETIPMNASNLSLSKYIPRIAEDMTIQEAKKFARENNNKEGKIDEIMHDSIQDTAEQKVQLLLCWYQSHGKSDAYQDLIKGLKKAECRRTLDKFQDMVQKDLGKSTPDTGNENEGQCLE
notes: domain: intracellular domain; The text says 'Ile to Leu' but labels the mutant I225N; Position as printed; may count on the mature receptor; also called lprcg mutation
B8: no binding [10].

B9: mouse Fas-IC I225A (receptor, UniProt P25446 187-327, looked up)
chain: RKYRKRKCWKRRQDDPESRTSSRETIPMNASNLSLSKYIPRIAEDMTIQEAKKFARENNAKEGKIDEIMHDSIQDTAEQKVQLLLCWYQSHGKSDAYQDLIKGLKKAECRRTLDKFQDMVQKDLGKSTPDTGNENEGQCLE
notes: domain: intracellular domain; Position as printed; may count on the mature receptor
B9: no binding [10].

B10: GST-mFas-IC (receptor, mouse, UniProt P25446 187-327, looked up)
chain: RKYRKRKCWKRRQDDPESRTSSRETIPMNASNLSLSKYIPRIAEDMTIQEAKKFARENNIKEGKIDEIMHDSIQDTAEQKVQLLLCWYQSHGKSDAYQDLIKGLKKAECRRTLDKFQDMVQKDLGKSTPDTGNENEGQCLE
notes: domain: intracellular domain; Produced in E. coli, attached to glutathione beads; also called GST fusion with the mouse Fas-IC; not shown: glutathione S-transferase (GST) fusion partner
B10: binds (FLAG-MORT-1).
